This passage reports pDCs (% of total cells remaining in culture), 4 h, 10 µg/ml antibody on human PBMC (% of total cells), pDCs (% of total cells remaining in culture), 24 h, 10 µg/ml antibody on human PBMC (% of total cells) and pDCs (% of total cells remaining in culture), 48 h, 10 µg/ml antibody on human PBMC (% of total cells) results from patent US20140178364A1.

The target of this test is interleukin 3 receptor α (IL-3Rα) chain (human) (UniProt P26951). The experiment in a line: cell-based or functional assay.
UniProt P26951, sequence (P26951 20-378): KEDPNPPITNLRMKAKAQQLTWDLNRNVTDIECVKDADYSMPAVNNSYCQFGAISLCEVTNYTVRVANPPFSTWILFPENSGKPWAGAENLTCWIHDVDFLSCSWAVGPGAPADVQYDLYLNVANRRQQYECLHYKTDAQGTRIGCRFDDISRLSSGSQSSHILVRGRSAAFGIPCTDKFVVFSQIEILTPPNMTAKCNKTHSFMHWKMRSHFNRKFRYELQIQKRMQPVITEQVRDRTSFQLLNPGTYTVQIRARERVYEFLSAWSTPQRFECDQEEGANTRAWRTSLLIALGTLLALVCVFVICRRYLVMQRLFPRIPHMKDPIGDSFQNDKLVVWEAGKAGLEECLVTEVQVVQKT

As to “chimeric version of 7G3 with a human IgG1 constant domain (ch7G3) (antibody)”, the pDCs (% of total cells remaining in culture), 4 h, 10 µg/ml antibody on human PBMC (% of total cells) stood at 0.1; the pDCs (% of total cells remaining in culture), 24 h, 10 µg/ml antibody on human PBMC (% of total cells) stood at 0.02; the pDCs (% of total cells remaining in culture), 48 h, 10 µg/ml antibody on human PBMC (% of total cells) amounted to 0.005.
